# T1: primary hexavalent scaffold CohII-C-A-CBM-T-G-F
# T1 chain: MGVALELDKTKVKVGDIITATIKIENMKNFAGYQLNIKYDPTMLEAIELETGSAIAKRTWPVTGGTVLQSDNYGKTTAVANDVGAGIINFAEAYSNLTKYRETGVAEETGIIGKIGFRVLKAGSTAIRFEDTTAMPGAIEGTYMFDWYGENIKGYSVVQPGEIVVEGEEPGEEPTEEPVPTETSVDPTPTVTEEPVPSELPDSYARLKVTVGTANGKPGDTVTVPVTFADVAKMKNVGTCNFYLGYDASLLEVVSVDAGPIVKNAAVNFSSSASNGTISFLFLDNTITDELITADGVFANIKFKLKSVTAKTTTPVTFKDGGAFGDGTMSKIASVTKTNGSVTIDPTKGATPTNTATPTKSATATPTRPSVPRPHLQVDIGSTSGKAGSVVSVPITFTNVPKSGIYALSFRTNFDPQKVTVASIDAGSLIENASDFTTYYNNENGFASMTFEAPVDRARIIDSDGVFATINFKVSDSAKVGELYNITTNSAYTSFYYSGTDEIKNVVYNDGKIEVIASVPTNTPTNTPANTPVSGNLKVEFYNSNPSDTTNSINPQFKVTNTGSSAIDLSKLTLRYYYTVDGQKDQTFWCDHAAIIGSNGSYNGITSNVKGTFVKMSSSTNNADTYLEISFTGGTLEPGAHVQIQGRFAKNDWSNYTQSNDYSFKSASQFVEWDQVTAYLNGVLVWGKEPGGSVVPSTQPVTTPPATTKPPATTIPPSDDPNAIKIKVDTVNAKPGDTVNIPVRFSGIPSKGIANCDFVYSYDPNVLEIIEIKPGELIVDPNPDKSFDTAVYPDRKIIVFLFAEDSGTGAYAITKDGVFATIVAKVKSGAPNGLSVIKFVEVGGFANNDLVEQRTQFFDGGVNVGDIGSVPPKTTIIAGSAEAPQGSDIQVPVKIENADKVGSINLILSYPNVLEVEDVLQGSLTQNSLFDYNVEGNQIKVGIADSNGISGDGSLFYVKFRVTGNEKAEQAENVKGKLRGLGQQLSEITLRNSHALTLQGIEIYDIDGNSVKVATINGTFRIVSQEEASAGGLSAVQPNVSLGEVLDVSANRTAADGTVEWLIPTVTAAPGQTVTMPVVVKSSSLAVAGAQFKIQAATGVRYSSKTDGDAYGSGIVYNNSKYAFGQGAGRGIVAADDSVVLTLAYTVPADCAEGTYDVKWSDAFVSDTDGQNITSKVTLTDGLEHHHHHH
# B1: adaptor scaffold CBM-A-B-T-DockII (other)
# chain: MANTPVSGNLKVEFYNSNPSDTTNSINPQFKVTNTGSSAIDLSKLTLRYYYTVDGQKDQTFWCDHAAIIGSNGSYNGITSNVKGTFVKMSSSTNNADTYLEISFTGGTLEPGAHVQIQGRFAKNDWSNYTQSNDYSFKSASQFVEWDQVTAYLNGVLVWGKEPGGSVVPSTQPVTTPPATTKPPATTKPPATTIPPSGSDLQVDIGSTSGKAGSVVSVPITFTNVPKSGIYALSFRTNFDPQKVTVASIDAGSLIENASDFTTYYNNENGFASMTFEAPVDRARIIDSDGVFATINFKVSDSAKVGELYNITTNSAYTSFYYSGTDEIKNVVYNDGKIEVIASPTPTQSATPTVTPSATATPTQSATPTVTPSSPGNKMKIQIGDVKANQGDTVIVPITFNEVPVMGVNNCNFTLAYDKNIMEFISADAGDIVTLPMANYSYNMPSDGLVKFLYNDQAQGAMSIKEDGTFANVKFKIKQSAAFGKYSVGIKAIGSISALSNSKLIPIESIFKDGSITVTNTPTNTISVTPTNNSTPTNNSTPKPNPLSDGVVVEIGKVTGSVGTTVEIPVYFRGVPSKGIANCDFVFRYDPNVLEIIGIDPGDIIVDPNPTKSFDTAIYPDRKIIVFLFAEDSGTGAYAITKDGVFAKIRATVKSSAPGYITFDEVGGFADNDLVEQKVSFIDGGVNVGNATRSTNKPVIEGYKVSGYILPDFSFDATVAPLVKAGFKVEIVGTELYAVTDANGYFEITGVPANASGYTLKISRATYLDRVIANVVVTGDTSVSTSQAPIMMWVGDIVKDNSINLLDVAEVIRCFNATKGSANYVEELDINRNGAINMQDIMIVHKHFGATSSDYDAQLEHHHHHH
# Target: T1, primary hexavalent scaffold …
# Assay: cell-based or functional assay
binder,measurement,value
B1,"wheat straw degradation, reducing sugars released after 48 hours incubation at 50 C (FIG. 5, Column 7 against Columns 4 and 6)",~2 fold

# — patent publication US20160186156A1 (YEDA RESEARCH AND DEVELOPMENT, published 2016)
